Assay results: PMC2819637
Where “and” joins values, the source holds several entries; their conditions need not be identical. Identical values can stand only once. Like-named read-outs stand apart in the source and are kept apart here.

Key:
PKR (Homo sapiens) [1] = target: PKR (Homo sapiens) (UniProt P19525); settings: cited from earlier work
PKR (Homo sapiens) [2] = target: PKR (Homo sapiens) (UniProt P19525); assay: analytical ultracentrifugation; settings: cited from earlier work
[3] = target: phosphorylated monomeric PKR (pPKRm) (human) (UniProt P19525); assay: AUC

Kd [3]	Substance	Kd (PKR (Homo sapiens) [1])	Kd (PKR (Homo sapiens) [2])
	PKR (from UniProt P19525)	500 µM and 450 µM	0.95 µM
473 µM	phosphorylated monomeric PKR (pPKRm) (from UniProt P19525 1-551) (enzyme)		
